Results from doi:10.1101/2021.10.11.463801.

B1: JIP3[1-108] (domain or fragment)
chain: MMEIQMDEGGGVVVYQDDYCSGSVMSERVSGLAGSIYREFERLIHCYDEEVVKELMPLVVNVLENLDSVLSENQEHEVELELLREDNEQLLTQYEREKALRRQAEEKF
B2: JIP4[1-103] (domain or fragment)
chain: MELEDGVVYQEEPGGSGAVMSERVSGLAGSIYREFERLIGRYDEEVVKELMPLVVAVLENLDSVFAQDQEHQVELELLRDDNEQLITQYEREKALRKHAEEKF

Target: DLIC1[388-523] (human)
Assay: ITC

Row | Binder | Kd [nM] | stoichiometry N (DLIC1-C molecules per RH1 dimer)
1 | B1 | 1000 | 2
2 | B2 | 4000 | 2
